B1: Nek6 (tag of the construct not stated) (enzyme)
chain: not shown
B2: FLAG Nek6 (enzyme)
chain: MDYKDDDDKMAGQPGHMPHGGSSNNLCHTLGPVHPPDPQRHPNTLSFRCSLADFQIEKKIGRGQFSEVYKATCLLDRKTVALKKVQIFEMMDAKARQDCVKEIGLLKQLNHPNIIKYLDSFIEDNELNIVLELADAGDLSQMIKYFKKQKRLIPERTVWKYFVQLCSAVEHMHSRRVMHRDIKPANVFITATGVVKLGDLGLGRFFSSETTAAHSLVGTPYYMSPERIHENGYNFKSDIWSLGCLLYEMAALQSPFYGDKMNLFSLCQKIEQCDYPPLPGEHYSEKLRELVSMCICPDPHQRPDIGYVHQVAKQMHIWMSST
notes: Expressed in HEK293 cells; runs as a doublet (phosphorylated and unphosphorylated); also called wild type FLAG Nek6

Legend:
FLAG Nercc (1-891) = target: T1, FLAG Nercc (1-891) (human, UniProt Q8TD19 1-891); experiment: binding test of co-expressed proteins; details not given
T1 sequence: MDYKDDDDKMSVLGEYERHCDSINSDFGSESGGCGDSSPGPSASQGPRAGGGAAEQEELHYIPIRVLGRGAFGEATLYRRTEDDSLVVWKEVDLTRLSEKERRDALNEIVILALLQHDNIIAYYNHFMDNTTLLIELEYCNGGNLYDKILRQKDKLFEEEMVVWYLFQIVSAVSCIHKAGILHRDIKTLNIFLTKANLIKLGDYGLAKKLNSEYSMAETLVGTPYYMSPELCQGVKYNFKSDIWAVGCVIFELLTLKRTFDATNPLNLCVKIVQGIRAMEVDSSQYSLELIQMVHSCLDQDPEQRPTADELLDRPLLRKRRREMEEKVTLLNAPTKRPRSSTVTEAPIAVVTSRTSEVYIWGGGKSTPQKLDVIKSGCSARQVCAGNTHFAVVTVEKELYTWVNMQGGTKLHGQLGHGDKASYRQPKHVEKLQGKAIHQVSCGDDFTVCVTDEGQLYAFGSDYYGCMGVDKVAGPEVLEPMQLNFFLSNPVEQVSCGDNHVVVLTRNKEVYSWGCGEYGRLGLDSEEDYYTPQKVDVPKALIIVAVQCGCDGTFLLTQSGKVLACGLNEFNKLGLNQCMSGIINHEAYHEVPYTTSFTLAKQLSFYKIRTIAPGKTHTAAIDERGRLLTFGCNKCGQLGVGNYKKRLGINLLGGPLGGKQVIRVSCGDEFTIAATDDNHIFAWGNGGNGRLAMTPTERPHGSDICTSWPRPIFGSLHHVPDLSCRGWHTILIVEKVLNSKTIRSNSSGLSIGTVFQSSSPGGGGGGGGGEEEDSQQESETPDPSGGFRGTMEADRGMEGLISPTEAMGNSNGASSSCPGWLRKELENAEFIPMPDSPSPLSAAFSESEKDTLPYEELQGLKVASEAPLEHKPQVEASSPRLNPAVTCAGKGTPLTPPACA

[1] = target: T2, FLAG Nercc (full-length wild type Nercc1 kinase with FLAG epitope tag) (human, UniProt Q8TD19 1-979); experiment: as above
T2 construct: Expressed in HEK293 cells; also called FLAG Nercc1; FLAG Nercc full length (FL)
T2 sequence: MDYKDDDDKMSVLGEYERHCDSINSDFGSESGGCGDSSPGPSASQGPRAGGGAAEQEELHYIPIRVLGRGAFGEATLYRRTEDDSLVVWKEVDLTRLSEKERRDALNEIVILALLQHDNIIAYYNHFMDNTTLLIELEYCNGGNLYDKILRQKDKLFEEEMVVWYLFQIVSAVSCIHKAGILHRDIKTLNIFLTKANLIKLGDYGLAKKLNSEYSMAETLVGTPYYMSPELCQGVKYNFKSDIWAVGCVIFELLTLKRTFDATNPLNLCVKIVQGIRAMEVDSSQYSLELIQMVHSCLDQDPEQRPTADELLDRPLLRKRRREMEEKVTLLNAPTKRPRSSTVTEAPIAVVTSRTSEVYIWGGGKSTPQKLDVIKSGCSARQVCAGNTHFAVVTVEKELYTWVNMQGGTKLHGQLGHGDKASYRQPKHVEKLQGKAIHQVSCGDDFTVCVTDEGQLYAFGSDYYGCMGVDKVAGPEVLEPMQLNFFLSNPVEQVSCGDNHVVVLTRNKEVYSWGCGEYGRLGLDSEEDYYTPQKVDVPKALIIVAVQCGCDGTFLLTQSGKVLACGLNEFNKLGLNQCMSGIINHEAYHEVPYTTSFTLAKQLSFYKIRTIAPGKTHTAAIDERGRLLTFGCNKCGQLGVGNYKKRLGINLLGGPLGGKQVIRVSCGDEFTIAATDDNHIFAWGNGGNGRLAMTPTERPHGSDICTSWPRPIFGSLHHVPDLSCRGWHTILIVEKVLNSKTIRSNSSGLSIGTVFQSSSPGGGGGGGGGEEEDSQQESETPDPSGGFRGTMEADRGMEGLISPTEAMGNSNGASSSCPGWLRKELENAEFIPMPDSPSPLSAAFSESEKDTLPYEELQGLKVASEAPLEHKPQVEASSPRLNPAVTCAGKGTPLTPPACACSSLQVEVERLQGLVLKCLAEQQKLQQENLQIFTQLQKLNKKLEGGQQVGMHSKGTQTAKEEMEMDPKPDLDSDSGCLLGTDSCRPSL

HA wild type Ran = HA wild type Ran (UniProt P62826 1-216); experiment: co-expression and co-immunoprecipitation
Excerpt: To address more directly the relative binding in vivo of Nercc to Ran-GDP compared to Ran-GTP, the cytoplasmic wild type Nercc and a nuclear form of full length Nercc (NLS-Nercc) were each co-expressed with wild type Ran or Ran mutants that bind GDP (T24N) or GTP (G19V) exclusively; either Ran or Nercc was immunoprecipitated and probed for the association with the other polypeptide. The full-length wild type Nercc bound co-expressed wild type Ran and Ran T24N to a greater extent than RanG19V.

[2] = target: T3, endogenous Nercc1 kinase of human cells (p120) (human, UniProt Q8TD19 2-979); experiment: anti-FLAG immunoaffinity purification from HEK293 cells; associated band identified by mass spectrometry
T3 construct: Endogenous 120 kDa protein
T3 sequence: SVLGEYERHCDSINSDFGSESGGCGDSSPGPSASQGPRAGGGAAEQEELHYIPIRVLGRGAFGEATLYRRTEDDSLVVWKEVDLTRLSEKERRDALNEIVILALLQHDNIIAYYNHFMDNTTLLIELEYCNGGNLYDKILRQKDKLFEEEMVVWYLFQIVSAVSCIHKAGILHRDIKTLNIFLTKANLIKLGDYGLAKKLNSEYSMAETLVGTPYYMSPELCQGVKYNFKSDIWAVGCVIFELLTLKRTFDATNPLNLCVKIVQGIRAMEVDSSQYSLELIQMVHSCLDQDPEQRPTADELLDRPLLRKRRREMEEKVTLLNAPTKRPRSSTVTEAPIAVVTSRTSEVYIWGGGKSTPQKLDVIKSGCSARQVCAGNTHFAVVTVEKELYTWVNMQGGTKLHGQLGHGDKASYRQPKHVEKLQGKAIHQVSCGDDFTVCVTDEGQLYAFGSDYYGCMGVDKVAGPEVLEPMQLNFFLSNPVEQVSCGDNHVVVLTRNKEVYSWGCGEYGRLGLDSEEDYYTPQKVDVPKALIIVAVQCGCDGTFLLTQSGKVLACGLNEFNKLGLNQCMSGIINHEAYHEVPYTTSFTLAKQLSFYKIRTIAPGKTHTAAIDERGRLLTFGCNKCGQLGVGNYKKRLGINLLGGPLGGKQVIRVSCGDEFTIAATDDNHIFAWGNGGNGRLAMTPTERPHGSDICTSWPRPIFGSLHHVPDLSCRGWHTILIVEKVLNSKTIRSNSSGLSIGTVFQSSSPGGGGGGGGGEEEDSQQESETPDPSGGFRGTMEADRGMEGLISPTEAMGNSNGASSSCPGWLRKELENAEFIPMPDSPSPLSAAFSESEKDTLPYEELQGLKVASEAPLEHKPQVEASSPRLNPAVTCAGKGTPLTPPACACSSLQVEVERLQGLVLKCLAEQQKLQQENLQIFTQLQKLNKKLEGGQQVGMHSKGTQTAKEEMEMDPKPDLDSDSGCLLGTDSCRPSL
Excerpt: Immunoaffinity purification of a FLAG Nek6 polypeptide overexpressed in HEK293 cells results in the recovery of an associated 120 kilodalton (kDa) polypeptide (p120). […] The 120 kDa band was excised, subjected to tryptic digestion in situ, microcapillary reverse-phase HPLC and peptide sequence analysis by electrospray ionization mass spectrometry. Spectra corresponding to multiple peptide sequences were identified on each of three successive open reading frames (ORFs) predicted by […] (Burge et al., J. Mol. Biol., 268: 78-94 (1997)) on the human BAC clone 201F1 (AC007055). […] Further analysis of the genomic sequences including and surrounding all three ORFs, using both […] (Borodovsky et al., Computers and Chem., 17: 123-133 (1993)) or […] yielded predictions containing all three original ORFs (AAD31938, AAD31939 and AAD31940) in polypeptides of around 100 kDa (107 kDa and 91 kDa, respectively).

| Binder | binding result (FLAG Nercc (1-891)) | binding result [1] | binding result (HA wild type Ran) | binding result [2] |
| --- | --- | --- | --- | --- |
| B1 | binds | binds | no binding | – |
| B2 | – | – | – | binds |
